± gives the standard error. Variants at the floor of the assay were thinned out.
B1: glmS ribozyme (parent)
chain: AUAAAAGCGCCAGAACUACAGAAAUGUAGUUGACGAGGAGGAGGUUUAUCGAAUUUUCGGCGGAUGCCUCCAAA

How the values were obtained:
Details in all cases: with glucosamine-6-phosphate
glucosamine-6-phosphate [1] = variants of: B1; test: self-cleavage kobs at 640 uM GlcN6P; higher = faster cleavage; RNA array
Outline: (§1)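 Barcoded ribozyme variants were transcribed in situ on sequenced MiSeq chips by E. coli RNA polymerase. At 37 °C, a hybridised Cy3 probe tracked them while glucosamine-6-phosphate (40 μM to 10 mM) in HEPES/KCl/Mg(OAc)2 buffer flowed in and tiles were imaged over ~14 h. Per-tile medians of signals normalised to baseline and to non-cleaving reference variants were fit to one- or two-exponential decays, giving kobs. kcat and KM came from weighted Michaelis–Menten fits across concentrations.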

glucosamine-6-phosphate [2] = variants of: B1; test: self-cleavage kobs at 2500 uM GlcN6P; higher = faster cleavage; RNA array
Outline: as §1

glucosamine-6-phosphate [3] = variants of: B1; test: self-cleavage kobs at 10000 uM GlcN6P; higher = faster cleavage; RNA array
Outline: as §1

Row | Variant | self-cleavage kobs at 640 uM GlcN6P (glucosamine-6-phosphate [1]) [s⁻¹] | self-cleavage kobs at 2500 uM GlcN6P (glucosamine-6-phosphate [2]) [s⁻¹] | self-cleavage kobs at 10000 uM GlcN6P (glucosamine-6-phosphate [3]) [s⁻¹]
1 | G35U G38A G51U | < 1e-05 | – | –
2 | C16A G40U U57G | < 1e-05 | < 1e-05 | –
3 | G9U G63A | < 1e-05 | < 1e-05 | < 1e-05
4 | U31C A42C A64G C67G | < 1e-05 | – | –
5 | C34A G38U A53G | < 1e-05 | – | –
6 | A33G A53C A64U | < 1e-05 | – | –
7 | G35U G63U U65A | < 1e-05 | < 1e-05 | –
8 | C58A G62C C70G | 5.64e-05 ± 2.6e-05 | – | –
9 | A15U G35C C50U | < 1e-05 | – | –
10 | A12U C16U G43U | 4.04e-05 ± 1.7e-05 | 7.33e-05 ± 1.4e-05 | –
11 | U31A G44A C67U | 0.00323 ± 0.0014 | 0.00757 ± 0.0024 | 0.00871 ± 0.0018
12 | C16U U45A C70G | 0.000277 ± 6e-05 | 0.000385 ± 9.2e-05 | –
13 | A15C U46A G60U | < 1e-05 | – | –
14 | G7A G37A G66U | < 1e-05 | < 1e-05 | –
15 | A6U U55G G59C U69C | 0.000135 ± 5.3e-05 | 5.57e-05 ± 2.7e-05 | –
16 | G35U A42G A48U | < 1e-05 | – | –
17 | A6U G38C C61U | < 1e-05 | – | –
18 | C10U U49G C58A | < 1e-05 | – | –

Row | Variant | self-cleavage kobs at 640 uM GlcN6P (glucosamine-6-phosphate [1]) [s⁻¹] | self-cleavage kobs at 2500 uM GlcN6P (glucosamine-6-phosphate [2]) [s⁻¹] | self-cleavage kobs at 10000 uM GlcN6P (glucosamine-6-phosphate [3]) [s⁻¹]
19 | A15U C16G U46C | < 1e-05 | – | –
20 | G7U A48U C50A C67G | 0.000229 ± 8.3e-05 | – | –
21 | A6G C8U U31G C71G | < 1e-05 | – | –
22 | U45A U57A | 0.000159 ± 4.5e-05 | 0.000423 ± 7.9e-05 | –
23 | G9A U45A C50G C68U | < 1e-05 | – | < 1e-05
24 | G29U A39U G41U U65G | < 1e-05 | < 1e-05 | –
25 | C11U G29C U31A C34A A52C G60U | < 1e-05 | < 1e-05 | –
26 | A12G U47A G62U C67G C68G | 0.000122 ± 3.6e-05 | – | –
27 | G7U C11U A12C A15C A48G | < 1e-05 | – | –
28 | C16U G29U G40U G62C | < 1e-05 | – | –
29 | G9A C10U C58U | < 1e-05 | – | –
30 | G7U G13A A15C A36U G43A C67U | < 1e-05 | < 1e-05 | –
31 | C11U C68G | 0.000314 ± 0.00012 | – | –
32 | U30G C61U C71G | < 1e-05 | – | –
33 | G9A C11U U54A G59A A64G | < 1e-05 | < 1e-05 | –
34 | G9A G29C G32A G38U | < 1e-05 | – | –
35 | A14G U49A G63U | < 1e-05 | – | –
36 | G21A G44U | 9.22e-05 ± 2.3e-05 | 0.000164 ± 3.3e-05 | –
